Experimental data published in article PMC7878818 (2021).
Blank lines part the entries; values can stand above or below the binder they belong to. Ends that are not written are not given here. Me3 = trimethyl group on lysine (trimethyl-lysine); Me2 = dimethyl group on lysine (dimethyl-lysine)

Legend:
Assay in all cases: ITC
[1] = target: Spindlin1 Y91A/C11orf84 complex (human, UniProt Q9Y657 50-262; Q9BUA3 1-381, Y91A)
[2] = target: Spindlin1 W62A/C11orf84 complex (human, UniProt Q9Y657 50-262; Q9BUA3 1-381, W62A)
Spindlin1 W62A/C11orf84 complex, sequence (Q9Y657 50-262 W62A, chain 1 of 2): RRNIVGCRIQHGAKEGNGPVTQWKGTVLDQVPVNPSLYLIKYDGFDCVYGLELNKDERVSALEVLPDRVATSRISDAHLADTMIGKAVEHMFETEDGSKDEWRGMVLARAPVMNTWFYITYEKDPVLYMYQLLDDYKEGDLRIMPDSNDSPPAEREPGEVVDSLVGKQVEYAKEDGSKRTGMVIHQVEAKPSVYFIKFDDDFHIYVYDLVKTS
Spindlin1 W62A/C11orf84 complex, sequence (Q9BUA3 whole entry, chain 2 of 2): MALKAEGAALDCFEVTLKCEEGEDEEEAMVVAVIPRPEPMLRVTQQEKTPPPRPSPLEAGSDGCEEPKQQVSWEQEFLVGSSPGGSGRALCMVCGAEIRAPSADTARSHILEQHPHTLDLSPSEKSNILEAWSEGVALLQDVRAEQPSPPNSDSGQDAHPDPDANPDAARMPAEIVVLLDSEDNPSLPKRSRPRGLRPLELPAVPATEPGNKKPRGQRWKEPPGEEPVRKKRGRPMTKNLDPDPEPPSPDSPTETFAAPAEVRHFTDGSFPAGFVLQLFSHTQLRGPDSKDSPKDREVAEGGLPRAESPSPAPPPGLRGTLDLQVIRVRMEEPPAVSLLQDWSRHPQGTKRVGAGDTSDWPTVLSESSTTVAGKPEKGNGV

[3] = target: Spindlin1 W72A/C11orf84 complex (human, UniProt Q9Y657 50-262; Q9BUA3 1-381, W72A)
Spindlin1 W72A/C11orf84 complex, sequence (Q9Y657 50-262 W72A, chain 1 of 2): as the sequence (Q9Y657 50-262 W62A, chain 1 of 2) above, with A13W, W23A counted along it
Spindlin1 W72A/C11orf84 complex, sequence (Q9BUA3 whole entry, chain 2 of 2): as the sequence (Q9BUA3 whole entry, chain 2 of 2) above

[4] = target: Spindlin1 D173A/C11orf84 complex (human, UniProt Q9Y657 50-262; Q9BUA3 1-381, D173A)
Spindlin1 D173A/C11orf84 complex, sequence (Q9Y657 50-262 D173A, chain 1 of 2): as the sequence (Q9Y657 50-262 W62A, chain 1 of 2) above, with A13W, D124A counted along it
Spindlin1 D173A/C11orf84 complex, sequence (Q9BUA3 219-305, chain 2 of 2): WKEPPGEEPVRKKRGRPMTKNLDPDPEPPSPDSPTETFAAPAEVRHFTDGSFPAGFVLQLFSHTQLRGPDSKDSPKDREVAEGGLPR

[5] = target: Spindlin1 F141A/C11orf84 complex (human, UniProt Q9Y657 50-262; Q9BUA3 1-381, F141A)
Spindlin1 F141A/C11orf84 complex, sequence (Q9Y657 50-262 F141A, chain 1 of 2): as the sequence (Q9Y657 50-262 W62A, chain 1 of 2) above, with A13W, F92A counted along it
Spindlin1 F141A/C11orf84 complex, sequence (Q9BUA3 whole entry, chain 2 of 2): as the sequence (Q9BUA3 whole entry, chain 2 of 2) above

[6] = target: Spindlin1 W62A/W72A/C11orf84 complex (human, UniProt Q9Y657 50-262; Q9BUA3 1-381, W62A | W72A)
Spindlin1 W62A/W72A/C11orf84 complex, sequence (Q9Y657 50-262 W62A/W72A, chain 1 of 2): as the sequence (Q9Y657 50-262 W62A, chain 1 of 2) above, with W23A counted along it
Spindlin1 W62A/W72A/C11orf84 complex, sequence (Q9BUA3 whole entry, chain 2 of 2): as the sequence (Q9BUA3 whole entry, chain 2 of 2) above

[7] = target: Spindlin1 Y98A/C11orf84 complex (human, UniProt Q9Y657 50-262; Q9BUA3 1-381, Y98A)
Spindlin1 Y98A/C11orf84 complex, sequence (Q9Y657 50-262 Y98A, chain 1 of 2): as the sequence (Q9Y657 50-262 W62A, chain 1 of 2) above, with A13W, Y49A counted along it
Spindlin1 Y98A/C11orf84 complex, sequence (Q9BUA3 whole entry, chain 2 of 2): as the sequence (Q9BUA3 whole entry, chain 2 of 2) above

[8] = target: Spindlin1/C11orf84 complex (human, UniProt Q9Y657 50-262; Q9BUA3 1-381)
Spindlin1/C11orf84 complex, sequence (Q9Y657 50-262, chain 1 of 2): as the sequence (Q9Y657 50-262 W62A, chain 1 of 2) above, with A13W counted along it
Spindlin1/C11orf84 complex, sequence (Q9BUA3 219-305, chain 2 of 2): as the sequence (Q9BUA3 219-305, chain 2 of 2) above

Spindlin1 Y91A/C11orf84 complex, sequence (Q9Y657 50-262 Y91A, chain 1 of 2): as the sequence (Q9Y657 50-262 W62A, chain 1 of 2) above, with A13W, Y42A counted along it
Spindlin1 Y91A/C11orf84 complex, sequence (Q9BUA3 whole entry, chain 2 of 2): as the sequence (Q9BUA3 whole entry, chain 2 of 2) above

Kd [1]: 59 nM | Kd [2]: 71 nM | Kd [3]: 77 nM | Kd [4]: 57 nM | Kd [5]: 869 nM | Kd [6]: 199 nM | Kd [7]: 80 nM
B1: H3K4me3K9me3 peptide (peptide)
chain: ARTK(Me3)QTARK(Me3)STG

Kd [8]: 42 nM
B2: H3K4me3K9me2 peptide (peptide)
chain: ARTK(Me3)QTARK(Me2)STG

Kd [8]: 213 nM
B3: H3K4me3 peptide (peptide)
chain: ARTK(Me3)QTARKSTG

Kd [8]: 82 nM
B4: H3K4me3R8me2a peptide (peptide)
chain: ARTK(Me3)QTAR(asymmetric Me2)KSTG

Kd [8]: 2880 nM
B5: H3K9me3 peptide (peptide)
chain: ARTKQTARKSTG
modifications: K9me3
